Source: patent US20220259288A1 (LA JOLLA INSTITUTE FOR ALLERGY AND IMMUNOLOGY, published 2022)
Positions count from the first letter of the chain named.

T1: HLA-DP DPB1*04:01 (human)
T1 chain 1: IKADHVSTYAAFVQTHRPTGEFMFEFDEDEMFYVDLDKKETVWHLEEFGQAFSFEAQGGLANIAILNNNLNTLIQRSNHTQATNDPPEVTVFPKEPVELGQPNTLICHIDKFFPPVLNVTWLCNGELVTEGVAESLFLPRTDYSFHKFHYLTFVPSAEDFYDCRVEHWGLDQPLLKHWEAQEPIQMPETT
T1 chain 2: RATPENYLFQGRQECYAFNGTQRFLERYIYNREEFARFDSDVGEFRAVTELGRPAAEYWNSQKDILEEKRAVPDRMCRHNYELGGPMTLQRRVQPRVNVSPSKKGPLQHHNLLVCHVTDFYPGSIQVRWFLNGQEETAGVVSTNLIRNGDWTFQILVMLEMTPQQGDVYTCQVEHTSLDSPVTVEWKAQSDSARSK

T2: HLA-DP DPB1*02:01 (human)
T2 chain 1: T1 chain 1
T2 chain 2: T1 chain 2 with A36V, A55D, A56E, K69E


Molecular target: T3, HLA-DP DPB1*05:01 (human)
T3 construct: its preparation is not described
Assay: competition assay

| IC50 [nM] | Binder |
| --- | --- |
| 1480 | SLFFSAQPFEITAST (also called p18) [ApoB100 peptide 3563.0018] |

Molecular target: T1, HLA-DP DPB1*04:01
Assay: competition assay

| Binder | IC50 [nM] |
| --- | --- |
| HVKHFVINLIGDFEV [ApoB100 peptide 3563.0014] | 7 |
| PALLALLALPALLLL (label printed as 3563.001) [ApoB100 peptide 3563.001] | 14000 |
| LEVLNFDFQANAQLS (agrees with the claims) [ApoB100 peptide 3563.0017] | 191 |
| VGSKLIVAMSSWLQK (agrees with the claims) | 89 |
| GKLYSILKIQSPLFT [ApoB100 peptide 3563.0016] | 2100 |
| TLTAFGFASADLIEI [ApoB100 peptide 3563.0005, listing 1 of 2 here] | 490 |
| LIINWLQEALSSASL (agrees with the claims) | 6190 |
| DKRLAAYLMLMRSPS [ApoB100 peptide 3563.0004] | 372 |
| FLHYIFMENAFELPT [ApoB100 peptide 3563.0006] | 32 |
| QELLDIANYLMEQIQ [ApoB100 peptide 3563.0003, listing 1 of 2 here] | 2580 |
| LSQLQTYMIQFDQYI [ApoB100 peptide 3563.0012, listing 1 of 2 here] | 951 |

Second part, the binder after the results:

| IC50 [nM] | Binder |
| --- | --- |
| 78 | KIVSLIKNLLVALKD [ApoB100 peptide 3563.0028, listing 1 of 2 here] |
| 817 | QIHQYIMALREEYFD [ApoB100 peptide 3563.0027] |
| 25000 | IDLSIQNYHTFLIYI [ApoB100 peptide 3563.0029] |
| 2.1 | YKKLRTSSFALNLPT [ApoB100 peptide 3563.0022] |
| 16 | QEVFKAIQSLKTTEV [ApoB100 peptide 3563.0024] |
| 215 | FLIYITELLKKLQST [ApoB100 peptide 3563.0030] |

Molecular target: T2, HLA-DP DPB1*02:01
Assay: competition assay

| Binder | IC50 [nM] |
| --- | --- |
| HVKHFVINLIGDFEV [ApoB100 peptide 3563.0014] | 58 |
| LEVLNFDFQANAQLS (agrees with the claims) [ApoB100 peptide 3563.0017] | 86 |
| VGSKLIVAMSSWLQK (agrees with the claims) | 128 |
| GKLYSILKIQSPLFT [ApoB100 peptide 3563.0016] | 9070 |
| LIINWLQEALSSASL (agrees with the claims) | 16300 |
| GKIDFLNNYALFLSP [ApoB100 peptide 3563.0019] | 456 |
| DKRLAAYLMLMRSPS [ApoB100 peptide 3563.0004] | 1680 |
| SLFFSAQPFEITAST (also called p18) [ApoB100 peptide 3563.0018] | 11 |
| FLHYIFMENAFELPT [ApoB100 peptide 3563.0006] | 40 |
| QELLDIANYLMEQIQ [ApoB100 peptide 3563.0003, listing 1 of 2 here] | 1780 |
| VEFVTNMGIIIPDFA (agrees with the claims) [ApoB100 peptide 3563.0007] | 12 |
| LSQLQTYMIQFDQYI [ApoB100 peptide 3563.0012, listing 1 of 2 here] | 576 |

Other lines, results leading:

| IC50 [nM] | Binder |
| --- | --- |
| 61 | EGHLRFLKNIILPVY [ApoB100 peptide 3563.0021] |
| 657 | KIVSLIKNLLVALKD [ApoB100 peptide 3563.0028, listing 1 of 2 here] |
| 80 | QIHQYIMALREEYFD [ApoB100 peptide 3563.0027] |
| 23200 | IDLSIQNYHTFLIYI [ApoB100 peptide 3563.0029] |
| 3.3 | YKKLRTSSFALNLPT [ApoB100 peptide 3563.0022] |
| 200 | QEVFKAIQSLKTTEV [ApoB100 peptide 3563.0024] |
| 96 | FLIYITELLKKLQST [ApoB100 peptide 3563.0030] |

Molecular target: T4, HLA-DP DPB1*14:01 (human)
T4 construct: its preparation is not described
Assay: competition assay

| IC50 [nM] | Binder |
| --- | --- |
| 126 | SLFFSAQPFEITAST (also called p18) [ApoB100 peptide 3563.0018] |

Molecular target: T5, HLA-DRB5*01:01 (human)
T5 construct: MHC class II molecule; how it was prepared for the assay is not described
Assay: HLA class II competition binding assay

| IC50 [nM] | Binder |
| --- | --- |
| 23 | VGSKLIVAMSSWLQK |
| 826 | LSQLQTYMIQFDQYI [ApoB100 peptide 3563.0012, listing 2 of 2 here] |
| 14 | KIVSLIKNLLVALKD [ApoB100 peptide 3563.0028, listing 2 of 2 here] |
| 276 | TLTAFGFASADLIEI [ApoB100 peptide 3563.0005, listing 2 of 2 here] |

Molecular target: T6, HLA-DRB1*03:01 (human)
T6 construct: MHC class II molecule; how it was prepared for the assay is not described
Assay: HLA class II competition binding assay

| IC50 [nM] | Binder |
| --- | --- |
| 20500 | LSQLQTYMIQFDQYI [ApoB100 peptide 3563.0012, listing 2 of 2 here] |
| 16400 | TLTAFGFASADLIEI [ApoB100 peptide 3563.0005, listing 2 of 2 here] |

Molecular target: T7, HLA-DRB3*01:01 (human)
T7 construct: MHC class II molecule; how it was prepared for the assay is not described
Assay: HLA class II competition binding assay

| IC50 [nM] | Binder |
| --- | --- |
| 71 | ILFSYFQDLVITLPF [ApoB100 peptide 3563.0023] |
| 1110 | LSQLQTYMIQFDQYI [ApoB100 peptide 3563.0012, listing 2 of 2 here] |
| 99 | TLTAFGFASADLIEI [ApoB100 peptide 3563.0005, listing 2 of 2 here] |
| 88 | QELLDIANYLMEQIQ [ApoB100 peptide 3563.0003, listing 2 of 2 here] |

Molecular target: T8, HLA-DRB1*07:01 (human)
T8 construct: MHC class II molecule; how it was prepared for the assay is not described
Assay: HLA class II competition binding assay

| IC50 [nM] | Binder |
| --- | --- |
| 77 | IKHIYAISSAALSAS (also called p9; P9) [ApoB100 peptide 3563.0009] |
| 14 | LSQLQTYMIQFDQYI [ApoB100 peptide 3563.0012, listing 2 of 2 here] |
| 33 | TLTAFGFASADLIEI [ApoB100 peptide 3563.0005, listing 2 of 2 here] |

Molecular target: T9, HLA-DRB1*09:01 (human)
T9 construct: MHC class II molecule; how it was prepared for the assay is not described
Assay: HLA class II competition binding assay

| IC50 [nM] | Binder |
| --- | --- |
| 425 | LSQLQTYMIQFDQYI [ApoB100 peptide 3563.0012, listing 2 of 2 here] |
| 28 | TLTAFGFASADLIEI [ApoB100 peptide 3563.0005, listing 2 of 2 here] |

Molecular target: T10, HLA-DRB1*04:05 (human)
T10 construct: MHC class II molecule; how it was prepared for the assay is not described
Assay: HLA class II competition binding assay

| IC50 [nM] | Binder |
| --- | --- |
| 69 | LSQLQTYMIQFDQYI [ApoB100 peptide 3563.0012, listing 2 of 2 here] |

Molecular target: T11, HLA-DRB1*13:02 (human)
T11 construct: MHC class II molecule; how it was prepared for the assay is not described
Assay: HLA class II competition binding assay

| IC50 [nM] | Binder |
| --- | --- |
| 1.1 | RGLKLATALSLSNKF [ApoB100 peptide 3563.0020] |
| 12 | LIINWLQEALSSASL |
| 35 | LSQLQTYMIQFDQYI [ApoB100 peptide 3563.0012, listing 2 of 2 here] |
| 6.1 | TLTAFGFASADLIEI [ApoB100 peptide 3563.0005, listing 2 of 2 here] |

Molecular target: T12, HLA-DRB1*15:01 (human)
T12 construct: MHC class II molecule; how it was prepared for the assay is not described
Assay: HLA class II competition binding assay

| IC50 [nM] | Binder |
| --- | --- |
| 1.1 | IKHIYAISSAALSAS (also called p9; P9) [ApoB100 peptide 3563.0009] |
| 1.1 | LSQLQTYMIQFDQYI [ApoB100 peptide 3563.0012, listing 2 of 2 here] |
| 25 | TLTAFGFASADLIEI [ApoB100 peptide 3563.0005, listing 2 of 2 here] |

Molecular target: T13, HLA-DRB3*02:02 (human)
T13 construct: MHC class II molecule; how it was prepared for the assay is not described
Assay: HLA class II competition binding assay

| IC50 [nM] | Binder |
| --- | --- |
| 3.4 | IKHIYAISSAALSAS (also called p9; P9) [ApoB100 peptide 3563.0009] |
| 4660 | LSQLQTYMIQFDQYI [ApoB100 peptide 3563.0012, listing 2 of 2 here] |
| 18100 | TLTAFGFASADLIEI [ApoB100 peptide 3563.0005, listing 2 of 2 here] |

Molecular target: T14, HLA-DRB1*12:01 (human)
T14 construct: MHC class II molecule; how it was prepared for the assay is not described
Assay: HLA class II competition binding assay

| IC50 [nM] | Binder |
| --- | --- |
| 3360 | LSQLQTYMIQFDQYI [ApoB100 peptide 3563.0012, listing 2 of 2 here] |
| 27200 | TLTAFGFASADLIEI [ApoB100 peptide 3563.0005, listing 2 of 2 here] |

Molecular target: T15, HLA-DRB1*01:01 (human)
T15 construct: MHC class II molecule; how it was prepared for the assay is not described
Assay: HLA class II competition binding assay

| IC50 [nM] | Binder |
| --- | --- |
| 157 | LSQLQTYMIQFDQYI [ApoB100 peptide 3563.0012, listing 2 of 2 here] |
| 60 | TLTAFGFASADLIEI [ApoB100 peptide 3563.0005, listing 2 of 2 here] |

Molecular target: T16, HLA-DRB1*04:01 (human)
T16 construct: MHC class II molecule; how it was prepared for the assay is not described
Assay: HLA class II competition binding assay

| IC50 [nM] | Binder |
| --- | --- |
| 19 | LSQLQTYMIQFDQYI [ApoB100 peptide 3563.0012, listing 2 of 2 here] |

Molecular target: T17, HLA-DRB4*01:01 (human)
T17 construct: MHC class II molecule; how it was prepared for the assay is not described
Assay: HLA class II competition binding assay

| IC50 [nM] | Binder |
| --- | --- |
| 12 | LIINWLQEALSSASL |
| 29 | LSQLQTYMIQFDQYI [ApoB100 peptide 3563.0012, listing 2 of 2 here] |

Molecular target: T18, HLA-DQ DQB1*06:02 (human)
T18 construct: its preparation is not described
Assay: competition assay

| IC50 [nM] | Binder |
| --- | --- |
| 895 | SLFFSAQPFEITAST (also called p18) [ApoB100 peptide 3563.0018] |
